Results reported in US20250218531A1 (ABSCI, published 2025).
Substitutions are numbered along the chain they refer to. Several values for one entry are separate records, joined by “and”; a condition that tells them apart may be missing. Equal values may be shown once.

Target: T1, HER2 (human epidermal growth factor receptor 2) (human, UniProt P04626 23-629)
T1 construct: also called Antigen: HER2
Assay: SPR

B1: Trastuzumab HCDR3 variant ATYSPGAYYYGP (Fab, V domains shown)
VH: EVQLVESGGGLVQPGGSLRLSCAASGFNIKDTYIHWVRQAPGKGLEWVARIYPTNGYTRYADSVKGRFTISADTSKNTAYLQMNSLRAEDTAVYYCATYSPGAYYYGPWGQGTLVTVSS
VL: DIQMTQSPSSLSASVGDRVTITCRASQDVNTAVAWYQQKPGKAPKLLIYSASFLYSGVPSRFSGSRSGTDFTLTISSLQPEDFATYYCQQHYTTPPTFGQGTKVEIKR
In the case of B1, the Kd is reported as 17.3 nM and 17.2 nM and the “log(KD (M))” value is reported as -7.76.

B2: Trastuzumab HCDR3 variant VRYGGDYYYFDY (Fab, V domains shown)
VH: B1 VH with A97V, T98R, S100G, P101G, G102D, A103Y, Y106F, G107D, P108Y
VL: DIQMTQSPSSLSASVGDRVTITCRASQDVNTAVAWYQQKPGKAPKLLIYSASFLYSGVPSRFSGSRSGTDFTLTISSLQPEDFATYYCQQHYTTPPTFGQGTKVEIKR
For B2, the Kd was 21.9 nM and the “log(KD (M))” value was -7.66.

B3: Trastuzumab HCDR3 variant ARYGYYGYYMDY (Fab, V domains shown)
VH: B1 VH with T98R, S100G, P101Y, G102Y, A103G, Y106M, G107D, P108Y
VL: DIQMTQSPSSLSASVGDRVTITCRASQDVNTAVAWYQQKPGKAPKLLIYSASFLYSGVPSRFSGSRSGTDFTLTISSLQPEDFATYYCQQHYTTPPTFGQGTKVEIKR
In the case of B3, the Kd is reported as 23.3 nM and the “log(KD (M))” value is reported as -7.63.

B4: Trastuzumab HCDR3 variant TRYGYGYYYFDY (Fab, V domains shown)
VH: B1 VH with A97T, T98R, S100G, P101Y, A103Y, Y106F, G107D, P108Y
VL: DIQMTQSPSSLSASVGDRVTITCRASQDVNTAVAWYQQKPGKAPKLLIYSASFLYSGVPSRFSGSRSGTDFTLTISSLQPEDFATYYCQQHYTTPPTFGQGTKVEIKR
With B4 the Kd was 2.73 nM and the “log(KD (M))” value was -8.56.

B5: Trastuzumab HCDR3 variant VRYGYDYYWFDY (Fab, V domains shown)
VH: B1 VH with A97V, T98R, S100G, P101Y, G102D, A103Y, Y105W, Y106F, G107D, P108Y
VL: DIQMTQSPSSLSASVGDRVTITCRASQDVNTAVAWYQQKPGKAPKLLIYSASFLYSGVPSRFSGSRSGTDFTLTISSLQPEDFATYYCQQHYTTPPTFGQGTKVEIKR
B5 was tested, and the Kd was 10.4 nM and the “log(KD (M))” value was -7.98.

B6: Trastuzumab HCDR3 variant ARYGYGYYYMDY (Fab, V domains shown)
VH: B1 VH with T98R, S100G, P101Y, A103Y, Y106M, G107D, P108Y
VL: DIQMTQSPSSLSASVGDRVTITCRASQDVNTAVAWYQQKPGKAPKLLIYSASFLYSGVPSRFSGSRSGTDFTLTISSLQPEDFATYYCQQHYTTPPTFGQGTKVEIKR
With B6 the Kd was 12.2 nM and the “log(KD (M))” value was -7.91.

B7: Trastuzumab HCDR3 variant ARYGVVRYDFAY (Fab, V domains shown)
VH: B1 VH with T98R, S100G, P101V, G102V, A103R, Y105D, Y106F, G107A, P108Y
VL: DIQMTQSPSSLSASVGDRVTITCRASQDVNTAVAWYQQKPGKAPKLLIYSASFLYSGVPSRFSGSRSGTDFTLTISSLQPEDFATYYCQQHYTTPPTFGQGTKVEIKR
With B7 the Kd was 20.5 nM and the “log(KD (M))” value was -7.69.

B8: Trastuzumab HCDR3 variant ARYWMGVYEFDY (Fab, V domains shown)
VH: B1 VH with T98R, S100W, P101M, A103V, Y105E, Y106F, G107D, P108Y
VL: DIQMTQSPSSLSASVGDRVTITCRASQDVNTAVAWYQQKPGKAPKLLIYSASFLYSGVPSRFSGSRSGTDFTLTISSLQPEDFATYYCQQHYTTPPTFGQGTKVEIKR
In the case of B8, the Kd is reported as 21.7 nM and the “log(KD (M))” value is reported as -7.66.

B9: Trastuzumab HCDR3 variant ARYRHWYYDYDY (Fab, V domains shown)
VH: B1 VH with T98R, S100R, P101H, G102W, A103Y, Y105D, G107D, P108Y
VL: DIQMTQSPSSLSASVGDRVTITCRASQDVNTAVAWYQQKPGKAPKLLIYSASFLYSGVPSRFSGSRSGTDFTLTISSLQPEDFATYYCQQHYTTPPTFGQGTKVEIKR
With B9 the Kd was 6.15 nM and the “log(KD (M))” value was -8.21.

B10: Trastuzumab HCDR3 variant ARYYYYSYAMDY (Fab, V domains shown)
VH: B1 VH with T98R, S100Y, P101Y, G102Y, A103S, Y105A, Y106M, G107D, P108Y
VL: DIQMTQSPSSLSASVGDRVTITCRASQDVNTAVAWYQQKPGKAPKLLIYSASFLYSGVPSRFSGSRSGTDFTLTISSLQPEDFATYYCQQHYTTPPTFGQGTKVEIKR
With B10 the Kd was 6.9 nM and the “log(KD (M))” value was -8.16.

B11: Trastuzumab HCDR3 variant STYARDYYHFGS (Fab, V domains shown)
VH: B1 VH with A97S, S100A, P101R, G102D, A103Y, Y105H, Y106F, P108S
VL: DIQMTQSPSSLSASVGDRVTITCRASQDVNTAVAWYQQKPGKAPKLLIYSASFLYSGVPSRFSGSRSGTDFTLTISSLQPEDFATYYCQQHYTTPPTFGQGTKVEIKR
In the case of B11, the Kd is reported as 12.6 nM and the “log(KD (M))” value is reported as -7.9.

B12: Trastuzumab HCDR3 variant ARYGTIYFHFDY (Fab, V domains shown)
VH: B1 VH with T98R, S100G, P101T, G102I, A103Y, Y104F, Y105H, Y106F, G107D, P108Y
VL: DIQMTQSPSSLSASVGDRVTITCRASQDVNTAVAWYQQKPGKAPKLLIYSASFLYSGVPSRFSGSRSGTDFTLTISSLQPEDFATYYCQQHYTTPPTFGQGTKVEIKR
With B12 the Kd was 23.9 nM and the “log(KD (M))” value was -7.62.

B13: Trastuzumab HCDR3 variant VRWRSDFYYFDY (Fab, V domains shown)
VH: B1 VH with A97V, T98R, Y99W, S100R, P101S, G102D, A103F, Y106F, G107D, P108Y
VL: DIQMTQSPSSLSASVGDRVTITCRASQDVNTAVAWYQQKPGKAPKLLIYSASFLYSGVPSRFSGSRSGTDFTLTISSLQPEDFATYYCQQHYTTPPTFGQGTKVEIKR
With B13 the Kd was 4.95 nM and the “log(KD (M))” value was -8.31.

B14: Trastuzumab HCDR3 variant ARYTFGAYYYSD (Fab, V domains shown)
VH: B1 VH with T98R, S100T, P101F, G107S, P108D
VL: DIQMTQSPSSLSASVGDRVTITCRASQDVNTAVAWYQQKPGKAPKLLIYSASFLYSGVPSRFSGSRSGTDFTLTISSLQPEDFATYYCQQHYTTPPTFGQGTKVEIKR
B14 was tested, and the Kd was 10.9 nM and the “log(KD (M))” value was -7.96.

B15: Trastuzumab HCDR3 variant ARYPSVVYAFGI (Fab, V domains shown)
VH: B1 VH with T98R, S100P, P101S, G102V, A103V, Y105A, Y106F, P108I
VL: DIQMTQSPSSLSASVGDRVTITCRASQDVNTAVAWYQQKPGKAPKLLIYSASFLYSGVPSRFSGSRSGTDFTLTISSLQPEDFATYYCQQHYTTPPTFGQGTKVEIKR
With B15 the Kd was 22.3 nM and the “log(KD (M))” value was -7.65.

B16: Trastuzumab HCDR3 variant VRYGYGYYYMDY (Fab, V domains shown)
VH: B1 VH with A97V, T98R, S100G, P101Y, A103Y, Y106M, G107D, P108Y
VL: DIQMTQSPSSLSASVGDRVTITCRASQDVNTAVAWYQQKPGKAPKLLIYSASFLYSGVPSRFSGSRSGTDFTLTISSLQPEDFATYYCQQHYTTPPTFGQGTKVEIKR
In the case of B16, the Kd is reported as 5.48 nM and the “log(KD (M))” value is reported as -8.26.

B17: Trastuzumab HCDR3 variant ARYGYDGYYFAY (Fab, V domains shown)
VH: B1 VH with T98R, S100G, P101Y, G102D, A103G, Y106F, G107A, P108Y
VL: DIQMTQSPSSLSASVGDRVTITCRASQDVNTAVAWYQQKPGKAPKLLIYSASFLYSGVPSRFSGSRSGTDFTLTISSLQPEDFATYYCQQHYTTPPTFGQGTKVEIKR
For B17, the Kd was 22.2 nM and the “log(KD (M))” value was -7.65.

B18: Trastuzumab HCDR3 variant VRYGGTYYYFDY (Fab, V domains shown)
VH: B1 VH with A97V, T98R, S100G, P101G, G102T, A103Y, Y106F, G107D, P108Y
VL: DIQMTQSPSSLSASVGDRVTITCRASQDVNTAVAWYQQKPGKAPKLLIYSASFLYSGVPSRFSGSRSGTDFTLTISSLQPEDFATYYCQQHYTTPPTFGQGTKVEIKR
B18 was tested, and the Kd was 15.4 nM and the “log(KD (M))” value was -7.81.

B19: Trastuzumab HCDR3 variant VRYGYGYYYFDY (Fab, V domains shown)
VH: B1 VH with A97V, T98R, S100G, P101Y, A103Y, Y106F, G107D, P108Y
VL: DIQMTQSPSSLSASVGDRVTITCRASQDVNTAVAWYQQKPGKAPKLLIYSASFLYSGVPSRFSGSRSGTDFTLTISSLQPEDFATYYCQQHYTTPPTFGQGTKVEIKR
In the case of B19, the Kd is reported as 2.77 nM and the “log(KD (M))” value is reported as -8.56.

B20: Trastuzumab HCDR3 variant ATYGYGYYYFDY (Fab, V domains shown)
VH: B1 VH with S100G, P101Y, A103Y, Y106F, G107D, P108Y
VL: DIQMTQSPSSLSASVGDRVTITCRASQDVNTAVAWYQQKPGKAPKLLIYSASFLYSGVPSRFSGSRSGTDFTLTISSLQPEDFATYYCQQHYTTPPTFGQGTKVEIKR
B20 was tested, and the Kd was 15.5 nM and the “log(KD (M))” value was -7.81.

B21: Trastuzumab HCDR3 variant ATWYGGNYHMYP (Fab, V domains shown)
VH: B1 VH with Y99W, S100Y, P101G, A103N, Y105H, Y106M, G107Y
VL: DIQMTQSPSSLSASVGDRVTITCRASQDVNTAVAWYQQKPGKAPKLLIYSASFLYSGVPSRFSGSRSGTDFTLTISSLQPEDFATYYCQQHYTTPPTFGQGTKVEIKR
B21 was tested, and the Kd was 11.2 nM and the “log(KD (M))” value was -7.95.

B22: Trastuzumab HCDR3 variant ARYGGYGGYYFDY (Fab, V domains shown)
VH: EVQLVESGGGLVQPGGSLRLSCAASGFNIKDTYIHWVRQAPGKGLEWVARIYPTNGYTRYADSVKGRFTISADTSKNTAYLQMNSLRAEDTAVYYCARYGGYGGYYFDYWGQGTLVTVSS
VL: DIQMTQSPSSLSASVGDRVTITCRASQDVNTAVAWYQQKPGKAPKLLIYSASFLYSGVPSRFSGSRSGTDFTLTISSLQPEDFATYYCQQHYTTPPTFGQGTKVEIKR
In the case of B22, the Kd is reported as 14 nM and the “log(KD (M))” value is reported as -7.85.

B23: Trastuzumab HCDR3 variant AKYGATGWYYFDY (Fab, V domains shown)
VH: B22 VH with R98K, G101A, Y102T, G104W
VL: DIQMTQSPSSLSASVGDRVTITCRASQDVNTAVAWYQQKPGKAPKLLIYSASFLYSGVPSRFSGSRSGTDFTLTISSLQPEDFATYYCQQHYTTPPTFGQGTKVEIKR
B23 was tested, and the Kd was 14.1 nM and the “log(KD (M))” value was -7.85.

B24: Trastuzumab HCDR3 variant AATYGGLGDMSSI (Fab, V domains shown)
VH: B22 VH with R98A, Y99T, G100Y, Y102G, G103L, Y105D, Y106M, F107S, D108S, Y109I
VL: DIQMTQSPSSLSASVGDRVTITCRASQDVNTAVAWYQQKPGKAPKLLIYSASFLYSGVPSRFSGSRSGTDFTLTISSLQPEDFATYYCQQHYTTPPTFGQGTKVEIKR
With B24 the Kd was 27 nM and the “log(KD (M))” value was -7.57.

B25: Trastuzumab HCDR3 variant AKFAYYGPYHFDP (Fab, V domains shown)
VH: B22 VH with R98K, Y99F, G100A, G101Y, G104P, Y106H, Y109P
VL: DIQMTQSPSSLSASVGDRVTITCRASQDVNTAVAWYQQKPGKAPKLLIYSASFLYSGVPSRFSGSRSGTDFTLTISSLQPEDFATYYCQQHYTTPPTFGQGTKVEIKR
For B25, the Kd was 10.1 nM and the “log(KD (M))” value was -7.99.

B26: Trastuzumab HCDR3 variant AKYAYYGDFWGSV (Fab, V domains shown)
VH: B22 VH with R98K, G100A, G101Y, G104D, Y105F, Y106W, F107G, D108S, Y109V
VL: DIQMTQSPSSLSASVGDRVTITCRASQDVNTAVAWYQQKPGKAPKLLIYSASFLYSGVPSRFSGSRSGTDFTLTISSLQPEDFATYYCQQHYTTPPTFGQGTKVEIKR
In the case of B26, the Kd is reported as 17.5 nM and the “log(KD (M))” value is reported as -7.76.
